US20190177371A1 (published 2019)
One block for each binder: values may come before it.

Experiments:
[1] = molecular target: T1, human melanocortin 1 receptor (human, UniProt Q01726 1-317); experiment: competition binding vs [125I]-NDP-α-MSH, whole HEK293 cells stably expressing the receptor
T1 construct: whole, on cells; also called hMC1R; hMC1 receptor

[2] = molecular target: T1, human melanocortin 1 receptor; experiment: cell-based or functional assay
[3] = molecular target: T1, human melanocortin 1 receptor; experiment: competition binding vs [125I]-NDP-α-MSH, A375 human melanoma cells

T1 sequence (Q01726 whole entry): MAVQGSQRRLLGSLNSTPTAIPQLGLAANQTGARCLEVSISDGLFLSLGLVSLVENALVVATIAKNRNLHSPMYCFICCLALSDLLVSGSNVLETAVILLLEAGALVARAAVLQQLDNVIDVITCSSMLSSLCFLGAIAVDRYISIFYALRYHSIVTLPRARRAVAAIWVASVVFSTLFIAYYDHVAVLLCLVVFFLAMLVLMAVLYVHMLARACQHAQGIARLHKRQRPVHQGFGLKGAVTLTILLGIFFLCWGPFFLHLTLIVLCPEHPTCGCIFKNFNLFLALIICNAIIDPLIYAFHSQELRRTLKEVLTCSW

IC50 [1]: 0.068 µM
B1: Peptide 32: Ac-Nle-c[Asp-(NMe)His-(NMe)nal-(NMe)Arg-(NMe)Trp-(NMe)Lys]-NH2 (peptide)
peptide: LDHXRWK
modifications: N-terminal acetyl; Nle at 4; D-Nal(2') (nal) at 7; side-chain lactam Asp5-Lys10; C-terminal amide; backbone N-methyl on His6, nal7, Arg8, Trp9 and Lys10 (α-MSH 4-10 numbering)
notes: also called Penta-N-methylated compound 32

EC50 (cAMP) [2]: 0.02 µM
B2: Peptide 28: Ac-Nle-c[Asp-(NMe)His-nal-(NMe)Arg-(NMe)Trp-(NMe)Lys]-NH2 (peptide)
peptide: LDHXRWK
modifications: N-terminal acetyl; Nle at 4; D-Nal(2') (nal) at 7; side-chain lactam Asp5-Lys10; C-terminal amide; backbone N-methyl on His6, Arg8, Trp9 and Lys10 (α-MSH 4-10 numbering)

EC50 (cAMP) [2]: 0.022 µM
IC50 [3]: 0.0148 µM
B3: Peptide 15: Ac-Nle-c[Asp-(NMe)His-nal-(NMe)Arg-Trp-Lys]-NH2 (peptide)
peptide: LDHXRWK
modifications: N-terminal acetyl; Nle at 4; D-Nal(2') (nal) at 7; side-chain lactam Asp5-Lys10; C-terminal amide; backbone N-methyl on His6 and Arg8 (α-MSH 4-10 numbering)
